The values below come from the nanobody polyreactivity screen of Harvey et al. (2022).

The data set can be described thus: yeast display, Sf9 membrane polyspecificity reagent, FACS + sequencing; frameworks hold sequencing errors. An outline of the steps: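 A nanobody's polyreactivity label depends on the gate it was sorted from. Yeast display cells were stained with 10% biotinylated, detergent-solubilized Sf9 membrane reagent for 1 hour at 4 °C, enriched on streptavidin microbeads and sorted by FACS. The low and high (top ~1%) gates were set on anti-HA fluorescence for expression and streptavidin fluorescence for reagent binding.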
As to “QVQLVESGVGLVQAGGSLRLSCAASGRTFRSYTMGWYRQAPGKERELVAAINRGDRTYADSVKGRFTISRDNAKNTVYLQMNSLKPEDTAVYYCNARYYTHRYDYWGQGTQVTVSS”, the “polyreactivity (PSR sort gate)” value is “high polyreactivity”.

Turning to “QVQLVESGGGLGQAGGSLRLSCAASGSIFGRYTMGWYRQAPGKERELVAAITLRGGSTYYADSVKGRFTISRDNAKNTVYLQMNSLKPEDTAVYYCATDGWKQSAYDYWGQGTQVTVSS”, the “polyreactivity (PSR sort gate)” value is recorded as “low polyreactivity”.

With “QVQLVESGGGLVQAGGSLRLSCAASGFIFYRYAMGWYRQAPGKERELVAAISRGDSTYYADSVKGRFTISRDNAKNTVYLQMNSLKPEDTAVYYCNADRPRYTYRATTYTGRYDYWGQGTQVTVSS”, the “polyreactivity (PSR sort gate)” value is “low polyreactivity”.

In the case of “QVQLQEIGGGLVQAGGSLRLSCAASGYISLAKTIGLSRQAPGKEREFVASIALGSSTYYTDSVKGSFTISRDNAKTTVYLQMNRLKPEDTAVYYCAARVGASYAHDYGGQGTQVTVSS”, the “polyreactivity (PSR sort gate)” value was “low polyreactivity”.

As for “QVQLVESGGGLVQAGGSLRLTCAASGSIVDANAMGLYRQAPGKERELVAAISSGDSTSYADSVKGRFTISRDNAKNTVYLQLNSLNPEDTAVYYCNAYVDSQGGFTLKHDYWGQGTQVTVSS”, the “polyreactivity (PSR sort gate)” value is given as “low polyreactivity”.

With “QVQLVESGGGLVQAGGSLRLSCAASGFIFSLYAMGWYRQAPGKERELVGAITRSGGSTYYADSVKGRFTISRDNAKNTVYLQMNSLKAEDTAVYYCAVSACYHYNYWGQGTQVTVSS”, the “polyreactivity (PSR sort gate)” value is “high polyreactivity”.

Take “QVQLVESGGGLFQAGGSLRLSCAASGSIFFYNNMGWYRQAPGKERELVDAISASGGRTYYADSVKGRFTISRDNAKNSVYLQMYSLKPEDTAVYYCAVRVPYRGYTRYDYWGQGTQVTVSS”: the “polyreactivity (PSR sort gate)” value is on record as “high polyreactivity”.

Turning to “QVQLVESGGGLVQAGGSLRLSCAASGITFAYNAMGWYRQAPGKERELVAAITTGGDTYYADSVKGRFTISRDNAKNTVYLQMNSLKPEDTAVYYCAATPTYWYLWSPYDYWGQGTQVTVSS”, the “polyreactivity (PSR sort gate)” value is listed as “low polyreactivity”.

As for “QVQLVESGGGLVQAGGSLRLSCAASGRILGRYAMGWYRQEPGKERELVASIRGGGSTNYADSVKGRFTISRDNAKNTVYLQMNSLKPEDTAVYYCAKDYDVRVYEYNYWGQGTQVTVSS”, the “polyreactivity (PSR sort gate)” value is on record as “low polyreactivity”.

For “QVQLVESGGGLVQAGGSLRLSCAASGSTFCRNAMGWYRQAPGKEREFVAVISISSGTTYADSVKGRFTISRDNAKNTVYLQMNSVKPVDTAVYYCAAAIGVYYIDYRYLGTVEYWGQGTQVNVSS”, the “polyreactivity (PSR sort gate)” value is listed as “low polyreactivity”.

With “QVQLVESGGGLVQAGGSLRLSCAASGSIFGGYTMGWYRQAPGKERELVAAISRRGGNTYYADSVKGRFTISRDNAKNTVYLQMNSLKPEDTAVYYCNARPTTYNYDYWGQGTQVTVSS”, the “polyreactivity (PSR sort gate)” value is “high polyreactivity”.

For “QVQLVESGGGLVQAGGSLRLSCAASGYTIYYYAMGWYRQAPGKERELVAVITSRGPRTYYADSVKGRFTISRDNAKNTVYLQMNSLKPEDTAVYYCNKARGVAYDWGQGTQVTVSS”, the “polyreactivity (PSR sort gate)” value was “high polyreactivity”.

For “QVHLVESGGGLVQAGGSLRLSCHASGIIFKTYAMGWYRQPPGKERELVAAISSGGTTYYADSVKGRFTISRDNAKNTVYLQMNSLKPEDTAVYYCAARGYRSGGGYNYWGQGTQVTVSS”, the “polyreactivity (PSR sort gate)” value was “high polyreactivity”.

For “QVQLVESGGGLVQAGGSLRLSCAASGRTSSYTMGWYRQAPGKERELVAAITRRGVSTYYADSLKGRFTISRDNAKNTVYFQMNSLKAEDTAVYYCAVGPRASFGYGYWGQGTQVTVSS”, the “polyreactivity (PSR sort gate)” value was “high polyreactivity”.

Turning to “QVQLVESGGGLVQAGGSLRLSCAASGRIFNYYAMGWYRQAPGKVTEFVASITSRGGTTYYADSVKGRFTISRDNAKNTVYLQMNCLKTEDTAVYFCAAVTRQGSRRSRMNYWGQGTQVTVSS”, the “polyreactivity (PSR sort gate)” value is listed as “high polyreactivity”.

In the case of “QVQLVESGGGLVQAGGSLRLSCAASGFISAGYAMGWYRQAPGKERELVAAISRRGGRTYYADSVKGRFTISRDNAKNTVYLQLNSLKPEDTAVYYCAAGSPHSAFAGPYDYWGQGTQVTVSS”, the “polyreactivity (PSR sort gate)” value is recorded as “high polyreactivity”.

As to “QVQLVESGGGLVQAGGSLRLSCAPSGSTLNVYAMGWYRQAPGKERELVAAIRWSGDTYYADSVKGRFTISRDNAKNTVYLQMNSLKPEDTAVYYCAADPGTTYWQRFDYWGQGTQVTVSS”, the “polyreactivity (PSR sort gate)” value is “low polyreactivity”.

“QVQLEESGGGLVQAGGSLRLSCAASGNIFPRYAMGWYRQAPGKERELVAAISYSGARTYYADSVKGRFTISRDNAKNTVYLQMNSLKPEDTAVYYCNKRVYYPWGQGTQVTVSS”: the “polyreactivity (PSR sort gate)” value is “high polyreactivity”.

On to “QVQLVESGGGLDQAGGSLRLSCAASGIIFPVYARGGYRQAPGKERELVAAISSVGSTNYADSVKGRFTISRDNAKNTVYLQMNSLKPEDTAVYYCAVDWAQEDGYWGQGPQVTVSS”, for which the “polyreactivity (PSR sort gate)” value is given as “low polyreactivity”.

Turning to “QVQLVESGGGLVQAGGSLRLSCAASGFTFYRYAMGWYRQAPGKERELVAAITRTGGSTYYADSVKGRFTISRDNAKNTVYLQMNSLKPEDTAVYYCAARVHGTGTLKYPNYYWGQGTQVTVSS”, the “polyreactivity (PSR sort gate)” value is listed as “high polyreactivity”.

As for “QVQLVESGGGLVQAGGSLRLSCAASGRIFRDYAMGWYRQAPGKERELVAAISLSGGSTYYADSVKGRFTISRDIAKNTVYLQVNSLKPEDTAVYYCAAKYYYGGNGYWGQGTQVNVSS”, the “polyreactivity (PSR sort gate)” value is on record as “low polyreactivity”.

Turning to “QVQLVESGGGLVQAGGSLRLSCAASGSTFESNAMGWYRQAPGKERELVAAISTSGGSTYYADSVKGRFTISRDNAKNTVYLQMNSLKPEDKAVYYCNAYPEAVRWKYNYWGQGTQVTVSS”, the “polyreactivity (PSR sort gate)” value is “low polyreactivity”.

For “QVQLVESGGGLVQAGGSLRLSCAASGLTFNFYAKGWYRQAPGKEREFVAAISRSGGSTHYADSVKGRFTISRDYAKYTVYLQMYSLKPEDTAVYYCAADGGRKNYDYWGQGTQVTVSS”, the “polyreactivity (PSR sort gate)” value is “high polyreactivity”.

Consider “QVQLVESGGGLVQAGGILRLSCDASGFTFYYYTMGWYRQAPGKERELVAAISKSGGTTYYADSVKGRFTISRDNAKNTVYLQMNSLKPEDTAVYYCAAKPWVWVYARYGKHPSYDYWGQGTQVTVSS”, for which the “polyreactivity (PSR sort gate)” value was “high polyreactivity”.

Consider “QVQLVESGGGLVQAGGSLRLSCAASGGIFPYYAMGWYRQAPGKERELVADISSGGSTYYADSVKGRFTISRDNAKNTVYLQMNSLKPEDTAVYYCAADAGQYFTYSGDDNHDYWGQGTQVTVSS”, for which the “polyreactivity (PSR sort gate)” value was “low polyreactivity”.

“QVQLVESGGGLVQAGGSLRLSCAASGRTFFLYAMGWYRQAPGKEREFVATISYGGGSTYYADSVKGRFTISRDNAKNTVYLQMNSLKPDDTAVYYCNALNTSQYAEGTSDYDGNMGYWGQGTQVTVSS”: the “polyreactivity (PSR sort gate)” value is reported as “low polyreactivity”.

For “QDQLVESGGGLVQAGGSLRLSCAASGIIVTYYAMGWYRQAPGKERELVAAISESGGITYYADSVKGRFTISRDNAKNTVYLQMISLKPEVTGVYYCNAEYWGYAWPYDYWGQGTQVTVSS”, the “polyreactivity (PSR sort gate)” value is reported as “high polyreactivity”.

With “QVQLVDSGGGLVQAGGSLRLSCAASGRIFYVYAMGWYRQATGKERQLVASIRYSGATTYYADSVKGRFTISLDNAKNTVYLQMNSLKPEDTAVYYCAADTLGTPAYRYEYWGQGTQVTVSS”, the “polyreactivity (PSR sort gate)” value is on record as “low polyreactivity”.

As for “QVQLVESGGGLVQAGGSLRLSCAASGRTFPYNAMGWYRQATGKERELVATINTSGASTSYADSVKRRFTISRDNEKNTVYLQMNSLKPEVTAVYYCNRDRRYYHRFDYWGQGTQVTVSS”, the “polyreactivity (PSR sort gate)” value is listed as “low polyreactivity”.

With “QVQLVESGGGLVQAGGSLRLSFAASGYIFYYNAMGWYRQAPGKERELVAAISRGGNTYYADSVKGRFTISRDNAKNTVYLQMNSLKPEDNAVYYFNARPPNKRYKYGYWGQGTQVTVSS”, the “polyreactivity (PSR sort gate)” value was “high polyreactivity”.
